The target of assay [1] is T1, human CD47-Fc (human, UniProt Q08722 19-139).
T1 construct: Recombinant CD47-Fc; also called hCD47-Fc; not shown: Fc part
Put plainly: direct specificity ELISA, IgG 1 µg/ml, FIG. 5. The text has this:
(§1) FIG. 5A-FIG. 5G. Binding specificity analyses for prioritized lead clones. Off-target homologue binding risk for mVH/mVL in IgG1 (FIG. 5A) and IgG1null (FIG. 5B) format and library-derived leads A-D5 (FIG. 5C), VH-A1/VL-B1 (FIG. 5D), F-E7 (FIG. 5E), D-H3 (FIG. 5F), and G-B6 (FIG. 5G) in IgG1null format was examined by direct ELISA on CD47-Fc orthologs and a panel of 14 human immunoglobulin superfamily proteins as labelled on each X-axis (“B” refers to blank). Binding to human, cyno and murine CD47-Fcs (h/c/mCD47-Fc) was performed at an IgG concentration of 1 μg/ml. Binding to all other proteins was performed at an IgG concentration of 10 μg/ml.
(§2) To ensure that that lead clones had not suffered from loss of target specificity during the mutation and reselection process; lead and control IgG1 clones were tested for binding to a panel of 14 purified human proteins from the immunoglobulin superfamily (FIG. 5).
In general terms: In an ELISA, binding on a coated surface is turned into a signal by an enzyme label.

Assay [2] deals with T2, cynomolgus monkey CD47-Fc (cynomolgus monkey, UniProt A0A2K5X523 19-139).
T2 construct: Recombinant CD47-Fc; also called cyno CD47-Fc; cCD47-Fc; not shown: Fc part
Put plainly: direct specificity ELISA, IgG 1 µg/ml, FIG. 5.
Source text: as §1, §2

The target of assay [3] is T3, mouse CD47-Fc (mouse, UniProt Q61735 19-140, limits assumed).
T3 construct: Recombinant CD47-Fc; also called mCD47-Fc; mCD37-Fc [sic]; not shown: Fc part
T3 sequence (looked up): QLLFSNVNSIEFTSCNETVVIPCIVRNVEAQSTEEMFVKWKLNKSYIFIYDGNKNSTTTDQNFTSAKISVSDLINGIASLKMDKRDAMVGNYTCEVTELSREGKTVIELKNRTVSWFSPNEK
The assay can be described thus: direct titration ELISA on coated CD47-Fc, FIG. 3. The procedure: FIG. 3A-FIG. 3H. Direct titration ELISA for IgG binding to human, mouse and cyno CD47-Fc proteins. Chimeric anti-CD47 (mVH/mVL), library-derived clones in human IgG1 null format were titrated (in μg/ml) in a direct binding ELISA against human, mouse and cyno CD47-Fc proteins (FIG. 3A-FIG. 3H). […] Clone TTP lost almost all binding function.
(§3) To coat Greiner Bio-One High bind ELISA plates, target proteins were diluted to 1 μg/ml in carbonate buffer and added at 100 μl per well, at 4° C., o/n. Coated plates were washed 3× with PBS pH7.4, blocked with 1% BSA in PBS (380 μl/well) for 1 hr at RT, then washed 3× with PBS-Tween 20 (PBST). CD47 antibodies (100 μl/well; diluted in PBST) were then added and then incubated 1 hr at RT. Plates were then washed 3× with PBST and goat anti-human kappa chain-HRP added (100 μl/well) at RT, for 1 hr. Plates were then washed 3× with PBST and twice with PBS before the addition of 100 μl TMB per well. Reactions were stopped by adding 100 μl 2M H₂SO₄/well and OD was read on a plate reader at 450 nm.

Assay [4] addresses T4, cynomolgus monkey CD47 on transfected CHO-K1 cells (cynomolgus monkey, UniProt A0A5F8AK49 19-323 (rhesus entry)).
T4 construct: whole, on cells; also called cyno CD47+ cells
Put plainly: flow cytometry, cyno CD47-transfected CHO-K1, FIG. 6. How it is done:
(§4) FIG. 6A-FIG. 6C. Flow cytometric binding to human and cyno CD47+CHO-K1 cells. Commercial anti-CD47 antibody MS1991, human IgG1 (“I IgG1”) and IgG4 (“I IgG4”) Isotype controls, lead library-derived IgGs in both IgG1null (“IgG1N”) and IgG4(S228P) formats were examined for specific binding on cyno-transfected CHO-K1 cells (FIG. 6A), human-transfected CHO-K1 cells (FIG. 6B), and wild type (wt, i.e. untransfected) CHO-K1 cells (FIG. 6C). IgGs were tested at concentrations ranging from 24-100,000 ng/ml. Concentration-dependent binding was observed against both human and cyno cell lines for all CD47-specific antibodies but not Isotype controls.
(§5) Antibodies to CD47 were analysed for concentration-dependent binding at the cell surface via flow cytometry. CHO-K1 cells were stably transfected with either human, mouse or cyno CD47 full-length cDNAs. Anti-CD47 IgGs mVH/mVL, VH-A1/VL-B1, A-D5, G-B6, F-E7 and D-H3, and an isotype control IgG1 were then all tested in IgG1null and IgG4(S228P) formats, alongside a commercial mouse anti-human CD47 monoclonal MS1991, over a concentration range of 100,000-24 ng/ml for binding to human, cyno or wild type control (‘wt’, i.e. untransfected) CHO-K1.
On the technique in general: A flow cytometer gives signals particle by particle.

Assay [5] has as its target T5, human CD47 on cells (human CD47-transfected CHO-K1; HL60) (human, UniProt Q08722 19-323).
T5 construct: whole, on cells; also called human CD47+ cells; human CD47+HL60 cells
Put plainly: flow cytometry, human CD47-transfected CHO-K1, FIG. 6. How it is done:
as §4, §5

The target of assay [6] is T1, human CD47-Fc. The assay can be described thus: direct titration ELISA, FIG. 18A. How it is done: (§6) FIG. 18A-FIG. 18C. Direct titration ELISA for A-D5.16 and A-D5.16-DI designer IgGs binding to human, mouse and cyno CD47-Fc proteins. Chimeric anti-CD47 (mVH/mVL), designer A-D5.16 and A-D5.16-DI clones in human IgG1null format were titrated (in μg/ml) in a direct binding ELISA against human (FIG. 18A), cyno (FIG. 18B) and mouse (FIG. 18C) CD47-Fc proteins.
as §3

Assay [7] concerns the target T3, mouse CD47-Fc. The assay can be described thus: direct titration ELISA, FIG. 18C. The procedure:
as §6, §3

For assay [8], the target named is T1, human CD47-Fc. The assay can be described thus: direct specificity ELISA, IgG 10 µg/ml, FIG. 13.
Assay [9] has as its target T3, mouse CD47-Fc. The assay can be described thus: direct specificity ELISA, IgG 10 µg/ml, FIG. 13.
In assay [10] the target is T2, cynomolgus monkey CD47-Fc. Put plainly: direct specificity ELISA, IgG 10 µg/ml, FIG. 13.
Assay [11] has as its target T1, human CD47-Fc. The assay can be described thus: direct titration ELISA (FIG. 11) or CD47-SIRPα competition ELISA (FIG. 12). How it is done: as §3
(§7) A competition ELISA assay was established to examine the capacity of optimized leads to block the binding interaction of CD47 with SIRPα. To coat Greiner Bio-One High bind ELISA plates, 10 μg/ml human SIRPα-Fc in carbonate coating buffer was added at 100 μl per well, at 4° C., o/n. Coated plates were washed 3× with PBS pH7.4, blocked with 1% BSA in PBS (380 μl/well) for 1 hr at RT, then washed 3× with PBS-Tween 20 (PBST). Biotinylated human, mouse or cyno CD47-Fc was then added at 0.2 μg/ml in PBS, 100 μl per well, at room temperature for 60 minutes with or without the addition of competing IgGs. Plates were then washed 3× with PBST and Streptavidin-HRP added (100 μl/well) at room temperature, for 1 hr. Plates were then washed 3× with PBST and twice with PBS before the addition of 100 μl TMB per well. Reactions were stopped by adding 100 μl 2M H₂SO₄/well and OD was read on a plate reader at 450 nm.

Assay [12] has as its target T3, mouse CD47-Fc. Described as above. How it is done:
as §3, §7

Assay [13] deals with T2, cynomolgus monkey CD47-Fc. The description is as above. How it is done: as §3, §7
For assay [14], the target named is T3, mouse CD47-Fc. Put plainly: direct specificity ELISA, IgG 1 µg/ml, FIG. 5A.
Source text: as §1, §2

Some results are limits rather than exact numbers.

From patent US20200277375A1 (ULTRAHUMAN FOUR, published 2020) come the findings set out here.

B1: VH-A1/VL-B1 in human IgG1null format (antibody, V domains shown)
VH: EVQLVQSGAEVKKPGESLKISCKGSGYSFTNYYIFWVRQMPGKGLEWMGIINPVDGDTRYSPSFQGQVTISADKSISTAYLQWSSLKASDTAMYYCARGGFTMDYWGQGTLVTVSS
VL: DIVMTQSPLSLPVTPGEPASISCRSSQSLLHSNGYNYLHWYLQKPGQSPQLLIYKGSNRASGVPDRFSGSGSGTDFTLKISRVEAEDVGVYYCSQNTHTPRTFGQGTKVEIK
notes: Combines the two most humanized observed v-domains; IgG1null (L234A/L235A/G237A), kappa; also called VH-A1/VI-B1
Turning to B1, the OD450 nm (with human CD47-Fc [1]; in assay [2]) was greater than 2 OD450 nm throughout. The binding result with mouse CD47-Fc [3] is “no binding”. The “maximum MFI, fold over untransfected CHO-K1” value in assay [4] and in assay [5] was greater than 10 fold in each case.

B2: A-D5.16-DI in human IgG1null format (antibody, V domains shown)
VH: EVQLVQSGAEVKKPGESLKISCKGSGYSFTNYYIFWVRQMPGKGLEWMGIINPVDGDTRYSPSFQGQVTISADKSISTAYLQWSSLKASDTAMYYCARGGYTMDRWGQGTLVTVSS
VL: DIVMTQSPLSLPVTPGEPASISCRSSQSLLHSAGYNYLHWYLQKPGQSPQLLIYKVSNRFSGVPDRFSGSGSGTDFTLKISRVEAEDAGVYYCFQNTHTPRTFGQGTKVEIK
notes: Deimmunised light chain paired with the A-D5.16 VH; IgG1null
B2: the binding result in the assay with human CD47-Fc [6] and with mouse CD47-Fc [7] was “binds” in each case.

B3: A-D5.16 in human IgG1null format (antibody, V domains shown)
VH: EVQLVQSGAEVKKPGESLKISCKGSGYSFTNYYIFWVRQMPGKGLEWMGIINPVDGDTRYSPSFQGQVTISADKSISTAYLQWSSLKASDTAMYYCARGGYTMDRWGQGTLVTVSS
VL: DIVMTQSPLSLPVTPGEPASISCRSSQSLLHSAGYNYLHWYLQKPGQSPQLLIYKVSNRLSGVPDRFSGSGSGTDFTLKISRVEAEDVGVYYCFQNTHTPRTFGQGTKVEIK
notes: Designer clone from A-D5.4; IgG1null; also called A-D.16
Regarding B3, the OD450 nm (with human CD47-Fc [8]; with mouse CD47-Fc [9]; in assay [10]) was greater than 2 OD450 nm each time. Besides, the “fold reduction in potency versus A-D5 and mVL/mVH” value (with human CD47-Fc [11]; with mouse CD47-Fc [12]; in [13]) was roughly 3 fold in each case.

B4: mVH/mVL (chimeric VxP037) in human IgG1 format (antibody, V domains shown)
VH: EVQLQQFGAELVKPGASMKLSCKASGYTFTNYYVFWVKQRPGQGLEWIGDINPVNGDTNFNEKFKNKATLTVDKSSTTTYLQLSSLTSEDSAVYYCTRGGYTMDYWGQGTLVTVSS
VL: DVVMTQTPLSLSVSLGDQASISCRSSQSLVHSNGNTYLHWYLQKPGQSPKLLIYKVSYRFSGVPDRFSGSGSGTDFTLKISRVEAEDLGVYFCSQNTHVPRTFGQGTKVEIK
notes: also called mVH/mVL in IgG1
In the case of B4, the binding result in the assay with mouse CD47-Fc [14] is on record as “binds”.
